From PMC8884905, “RECON syndrome is a genome instability disorder caused by mutations in the DNA helicase RECQL1” (The Journal of Clinical Investigation, 2022)

B1: recombinant human WT RECQL1 (enzyme, UniProt P46063 1-649, looked up)
chain: MASVSALTEELDSITSELHAVEIQIQELTERQQELIQKKKVLTKKIKQCLEDSDAGASNEYDSSPAAWNKEDFPWSGKVKDILQNVFKLEKFRPLQLETINVTMAGKEVFLVMPTGGGKSLCYQLPALCSDGFTLVICPLISLMEDQLMVLKQLGISATMLNASSSKEHVKWVHAEMVNKNSELKLIYVTPEKIAKSKMFMSRLEKAYEARRFTRIAVDEVHCCSQWGHDFRPDYKALGILKRQFPNASLIGLTATATNHVLTDAQKILCIEKCFTFTASFNRPNLYYEVRQKPSNTEDFIEDIVKLINGRYKGQSGIIYCFSQKDSEQVTVSLQNLGIHAGAYHANLEPEDKTTVHRKWSANEIQVVVATVAFGMGIDKPDVRFVIHHSMSKSMENYYQESGRAGRDDMKADCILYYGFGDIFRISSMVVMENVGQQKLYEMVSYCQNISKCRRVLMAQHFDEVWNSEACNKMCDNCCKDSAFERKNITEYCRDLIKILKQAEELNEKLTPLKLIDSWMGKGAAKLRVAGVVAPTLPREDLEKIIAHFLIQQYLKEDYSFTAYATISYLKIGPKANLLNNEAHAITMQVTKSTQNSFRAESSQTCHSEQGDKKMEEKNSGNFQKKAANMLQQSGSKNTGAKKRKIDDA
notes: RECQL1 (RECQL, RECQ1) DNA helicase, human, wild type; also called RECQ1; source: insect cells, purified to near homogeneity
B2: recombinant human RECQL1-A459S (enzyme, UniProt P46063 1-649, looked up)
chain: MASVSALTEELDSITSELHAVEIQIQELTERQQELIQKKKVLTKKIKQCLEDSDAGASNEYDSSPAAWNKEDFPWSGKVKDILQNVFKLEKFRPLQLETINVTMAGKEVFLVMPTGGGKSLCYQLPALCSDGFTLVICPLISLMEDQLMVLKQLGISATMLNASSSKEHVKWVHAEMVNKNSELKLIYVTPEKIAKSKMFMSRLEKAYEARRFTRIAVDEVHCCSQWGHDFRPDYKALGILKRQFPNASLIGLTATATNHVLTDAQKILCIEKCFTFTASFNRPNLYYEVRQKPSNTEDFIEDIVKLINGRYKGQSGIIYCFSQKDSEQVTVSLQNLGIHAGAYHANLEPEDKTTVHRKWSANEIQVVVATVAFGMGIDKPDVRFVIHHSMSKSMENYYQESGRAGRDDMKADCILYYGFGDIFRISSMVVMENVGQQKLYEMVSYCQNISKCRRVLMSQHFDEVWNSEACNKMCDNCCKDSAFERKNITEYCRDLIKILKQAEELNEKLTPLKLIDSWMGKGAAKLRVAGVVAPTLPREDLEKIIAHFLIQQYLKEDYSFTAYATISYLKIGPKANLLNNEAHAITMQVTKSTQNSFRAESSQTCHSEQGDKKMEEKNSGNFQKKAANMLQQSGSKNTGAKKRKIDDA
notes: Variant found in patients (RECON syndrome); also called p.A459S mutant RECQL1; RECQL1 p.Ala459Ser; source: insect cells, purified to near homogeneity

Tests used:
RECQL1 WT (human) [1] = assay: EMSA; details: EMSA: 20 mM Tris pH 7.4, 10 mM KCl, 5 mM MgCl2, 10% glycerol, 80 ng/ul BSA, with or without 5 mM ATPgS, 0.5 nM DNA; competition at 37 C (8 min, then 7 min with …)
RECQL1-A459S (human) [2] = assay: EMSA; details: EMSA: 20 mM Tris pH 7.4, 10 mM KCl, 5 mM MgCl2, 10% glycerol, 80 ng/ul BSA, with or without 5 mM ATPgS, 0.5 nM DNA; competition at 37 C (8 min, then 7 min with …)
RECQL1 WT (human) [3] = assay: EMSA; details: EMSA: 20 mM Tris pH 7.4, 10 mM KCl, 5 mM MgCl2, 10% glycerol, 80 ng/ul BSA, with or without 5 mM ATPgS, 0.5 nM DNA; competition at 37 C (8 min, then 7 min with …); remark: listed apart in the source
RECQL1-A459S (human) [4] = assay: EMSA; details: EMSA: 20 mM Tris pH 7.4, 10 mM KCl, 5 mM MgCl2, 10% glycerol, 80 ng/ul BSA, with or without 5 mM ATPgS, 0.5 nM DNA; competition at 37 C (8 min, then 7 min with …); remark: listed apart in the source
[5] = target: the molecule itself; assay: SEC; size exclusion chromatography of the purified recombinant protein in the absence of ATP

Row | Molecule | Kd (RECQL1 WT (human) [1]) [nM?] | Kd (RECQL1-A459S (human) [2]) [nM?] | Kd (RECQL1 WT (human) [3]) [nM?] | Kd (RECQL1-A459S (human) [4]) [nM?] | binding result [5]
1 | 19 bp forked duplex | 2.94 | 4.74 | 5.39 | 7.69 | 
2 | B1 |  |  |  |  | binds
3 | B2 |  |  |  |  | binds
